# From patent US7572594B2, “Screening assays for agonists or antagonists or receptor activator of NF-κB” (Immunex Corporation, priority 2000, dated 2009)
# Legend:
# [1] = system: spleen cells from RANK −/− mice; experiment: CaPO4 resorption (pit formation) assay; type: cell-based, mouse; settings: 5 days in 40 ng/ml CSF-1 and 200 ng/ml mRANK-L on CaPO4 film
# Text: The resorption of CaPO4, upon which this assay is based, is considered to be a measure of osteoclast activity. Spleen cells were isolated from 3-6 week old RANK −/− mice and treated as described in Example 9 to remove cells expressing the CD3, Ter-119, and GR-1 antigens. Cells not expressing any of these antigens were harvested and infected as described in Example 9 with retroviral vector particles containing full-length or TRAF6 binding site deletion mutants of RANK.
# Following infection, the spleen cells were harvested and plated in MEM containing 10% fetal bovine serum containing 40 ng/ml CSF-1 and 200 ng/ml mRANK-L onto 16 well quartz slides coated with a thin film of CaPO4 (Osteologic, BD Biosystems). After 5 days in culture, the slides were washed, the cells removed by washing with bleach, and the slides washed again with buffer. […] The number of pits in the CaPO4 film is a measure of the extent to which the RANK-L induced the cells grown on that slide to differentiate into osteoclasts.
# If desired, the CaPO4 film can be stained using a 0.5% solution of alizarin red for 4 to 5 minutes followed by washing in water. After staining, the resorptive lacunae are visualized by phase contrast microscopy as a clear area on a red background.
# [2] = system: c-src tyrosine kinase; experiment: c-src immune complex kinase assay in RANK −/− osteoclast precursors infected with RANK retrovirus; type: cell-based, mouse; settings: cells differentiated after retroviral infection; background = uninfected RANK −/− cells
# Experimental: Experiments were conducted in which DNA encoding wild-type or human RANK/TRAF6 binding mutant (RANK Δ340-421) was introduced into hematopoietic cells isolated from RANK −/− mice. Full-length and mutant human RANK DNAs were subcloned into the pBMNZ retroviral vector as previously described (Kinsella and Nolan, 1996, Human Gene Therapy 7:1405-1413). Infectious RANK-containing retrovirus was produced in 293-E Phoenix packaging cells as described (Kinsella and Nolan, 1996). Supernatants from these cells were used as a source of infectious virus particles.
# The generation of the RANK −/− mice used in these assays has been described previously (Dougall et al., 1999). Spleen cells were isolated from 3-6 week old RANK−/− mice and enriched for osteoclast precursors by depleting the initial cell population of various types of cells other than osteoclast precursors. For this “depletion” step, the cells were incubated with biotinylated antibodies against CD3 (specific for T cells), Ter-119 (specific for erythrocytes), and GR-1 (specific for granulocytes). After the antibodies had bound to their respective target cells, streptavidin-conjugated magnetic beads were added to the culture, and the mixture of cells was passed over magnetic columns (MACS depletion columns; MILLTENNYI). […]
# To induce c-src and F-actin rings, recombinant mRANK-L/leucine zipper protein was added to the cultures at a concentration of 1 μg/ml for various times after which the cells were lysed in a buffer containing 50 mM HEPES (pH 7.2), 10% glycerol, 250 mM NaCl and 1% Triton X-100. […] C-src activity in the immune complex was monitored using a commercially available assay kit (Upstate Biotechnology, Lake Placid, N.Y.). […] The phosphorylated substrate peptide was then separated from the residual labeled ATP using phosphocellulose paper and labeled peptide was quantified using a scintillation counter. […]
# [3] = system: primary hematopoietic cells from the RANK −/− mice; experiment: F-actin ring formation, phalloidin staining; type: cell-based, mouse; settings: 5 days in 40 ng/ml CSF-1 and 200 ng/ml mRANK-L
# Text: To detect F-actin rings, cells are fixed, such as by exposure to 3% paraformaldehyde, and visualized by staining cells with a fluorescent probe that binds specifically with actin. A suitable fluorescent tag is phalloidin, which can be obtained from Molecular Probes, Eugene, Oreg. The fluorescent signal is detected, for example, using a standard fluorescent microscope, and the number of cells having F-actin rings is visually quantified. An F-actin ring is identified as a continuous ring of F-actin at the periphery of a cell, and these distinct structures are visible through a microscope.
# A procedure to detect F-actin rings was carried out as follows. Primary hematopoietic cells from the RANK −/− mice were infected with retroviral constructs encoding either the full-length human RANK cDNA or the RANK/TRAF6 binding mutant (RANK Δ340-421). Cells were cultured on LabTek Chamber slides with #1 borosilicate coverglasses (Nalge/Nunc). After incubation for 5 days in MEM containing 10% fetal bovine serum containing 40 ng/ml CSF-1 and 200 ng/ml mRANK-L. The media was aspirated, washed twice in PBS and then fixed in a solution of 3% paraformaldehyde for 10 minutes, followed by quenching in 50 mM NH4Cl. […] The fluorescent signal was detected using a standard fluorescent microscope, and F-actin rings were identified as continuous rings of F-actin at the periphery of individual cells.
# [4] = system: mouse TRAP promoter (SEQ ID NO:12); experiment: mouse TRAP promoter/luciferase reporter in 293/EBNA cells; type: cell-based; settings: 24 hours after transfection, 0.4 ng RANK vector, 20 ng RANK-L vector
# Text: (§1) This example describes the activation of the TRAP promoter. A 2.6 kb DNA fragment containing the human TRAP promoter was obtained by digesting the plasmid pBL2HT2.2 with the restriction endonuclease ApaI. The cloning of the human TRAP gene 5′ region and the construction of pBL2HT2.2 are fully described in Reddy et al. (Bone 16:587-593 (1995)). A DNA containing the mouse TRAP promoter (SEQ ID NO:12) and a DNA containing the murine MMP-9 promoter (SEQ ID NO:11) also were used for these experiments. DNAs containing the promoters were fused to the luciferase reporter gene. These promoter/reporter constructs were transfected into human 293/EBNA cells along with various combinations of expression vectors that encoded full-length human RANK (SEQ ID NO:2) and human full-length RANK-L proteins (SEQ ID NO:6).
# For the mouse TRAP promoter (SEQ ID NO:12), 2×10^5 293/EBNA cells were transfected using DEAE/dextran with 40 ng of a plasmid encoding approximately 2 kb of the mouse TRAP promoter (SEQ ID NO:12) fused to a luciferase reporter, 20 ng of an expression vector encoding RANK-L (SEQ ID NO:6), and 0.4 ng of an expression vector encoding RANK (SEQ ID NO:2). Twenty four hours after transfection, luciferase activity in cell lysates was measured according to manufacturer's instructions (Promega) using a EG&G/Berthold luminometer. […]
# [5] = system: human TRAP promoter; experiment: human TRAP promoter/luciferase reporter in 293/EBNA cells; type: cell-based; settings: 40 ng reporter
# Text: as §1
# For the human TRAP promoter, the 1.9 kb […] fragment containing the promoter activity isolated from the region upstream of the human TRAP gene (Reddy et al., 1995) was fused to a luciferase reporter and transfected (40 ng) into 293/EBNA cells. The combination of human RANK (SEQ ID NO:2) and human RANK-L (SEQ ID NO:6) increased reporter expression approximately 1.5 fold.
Molecule,CaPO4 resorption [1],c-src activity [2],cells with F-actin rings [3],increase of reporter expression (luciferase) [4],increase of reporter expression (luciferase) [5]
"RANK Δ340-421: human RANK (SEQ ID NO:2) with the TRAF6 binding site (amino acids 340-421) deleted (protein, listed as Homo sapiens) MAPRARRRRPLFALLLLCALLARLQVALQIAPPCTSEKHYEHLGRCCNKCEPGKYMSSKCTTTSDSVCLPCGPDEYLDSWNEEDKCLLHKVCDTGKALVAVVAGNSTTPRRCACTAGYHWSQDCECCRRNTECAPGLGAQHPLQLNKDTVCKPCLAGYFSDAFSSTDKCRPWTNCTFLGKRVEHHGTEKSDAVCSSSLPARKPPNEPHVYLPGLIILLLFASVALVAAIIFGVCYRKKGKALTANLWHWINEACGRLSGDKESSGDSCVSTHTANFGQQGACEGVLLLTLEEKTFPEDMCYPDQGGVCQGTCVGGGPYAQGEDARMLSLVSKTEIEEDSLQKEVDSGHCPHWAASPSPNWADVCTGCRNPPGEDCEPLVGSPKRGPLPQCAYGMGLPPEEEASRTEARDQPEDGADGRLPSSARAGAGSGSSPGGQSPASGNVTGNSNSTFISSGQVMNFKGDIIVVYVSQTSQEGAAAAAEPMGRPVQEETLARRDSFAGNGPRFPDPCGGPEGLREPEKASRPVQEQGGAKA",insignificant levels of CaPO4 resorption,not discernibly different from background levels,no F-actin rings were discerned,,
"RANK (SEQ ID NO:2) and RANK-L (SEQ ID NO:6): co-transfection of expression vectors encoding full-length human RANK and human full-length RANK-L (protein, listed as Homo sapiens) chain 1: MAPRARRRRPLFALLLLCALLARLQVALQIAPPCTSEKHYEHLGRCCNKCEPGKYMSSKCTTTSDSVCLPCGPDEYLDSWNEEDKCLLHKVCDTGKALVAVVAGNSTTPRRCACTAGYHWSQDCECCRRNTECAPGLGAQHPLQLNKDTVCKPCLAGYFSDAFSSTDKCRPWTNCTFLGKRVEHHGTEKSDAVCSSSLPARKPPNEPHVYLPGLIILLLFASVALVAAIIFGVCYRKKGKALTANLWHWINEACGRLSGDKESSGDSCVSTHTANFGQQGACEGVLLLTLEEKTFPEDMCYPDQGGVCQGTCVGGGPYAQGEDARMLSLVSKTEIEEDSFRQMPTEDEYMDRPSQPTDQLLFLTEPGSKSTPPFSEPLEVGENDSLSQCFTGTQSTVGSESCNCTEPLCRTDWTPMSSENYLQKEVDSGHCPHWAASPSPNWADVCTGCRNPPGEDCEPLVGSPKRGPLPQCAYGMGLPPEEEASRTEARDQPEDGADGRLPSSARAGAGSGSSPGGQSPASGNVTGNSNSTFISSGQVMNFKGDIIVVYVSQTSQEGAAAAAEPMGRPVQEETLARRDSFAGNGPRFPDPCGGPEGLREPEKASRPVQEQGGAKA chain 2: MRRASRDYTKYLRGSEEMGGGPGAPHEGPLHAPPPPAPHQPPAASRSMFVALLGLGLGQVVCSVALFFYFRAQMDPNRISEDGTHCIYRILRLHENADFQDTTLESQDTKLIPDSCRRIKQAFQGAVQKELQHIVGSQHIRAEKAMVDGSWLDLAKRSKLEAQPFAHLTINATDIPSGSHKVSLSSWYHDRGWAKISNMTFSNGKLIVNQDGFYYLYANICFRHHETSGDLATEYLQLMVYVTKTSIKIPSSHTLMKGGSTKYWSGNSEFHFYSINVGGFFKLRSGEEISIEVSNPSLLDPDQDATYFGAFKVRDID",,,,approximately 4 fold,approximately 1.5 fold
